From PMC3567400 (Biochemistry, 2013) come the findings set out here.

The data set deals with the molecule itself. Put plainly: crystal structure.

B1: LnmK (Tyr62Phe) (enzyme, Streptomyces atroolivaceus S-140, UniProt Q8GGP1 2-319, looked up)
chain: SITSSLDVRPEIKQAVTVRPGMCGPGSLFVGQLGDWTWETVSAQCDTDVFAARDASGNPTFLAFYYFRVRGGRELHPGSLTFGDRLTVTSGCYDQGTESVLTLHRIDRAGSDDAQRPLDLHEFYERPRDGSLYVENFNRWVTRSAPGSNEDLVKSSPPGFRNDGLPQLPAAYSPRAVYREARTAHTFRALDEPGFRLLPDTVEVEHPVDIVRDVNGVGLLYFASYFSMVDKAALALWRRLGRSDRAFLRRVVVDQQMCYLGNADLDSVLTLGARVRVSTETPGEELVDVVISDRDSGRVIAVSTLHTQHDAHDPKGEA
As to B1, the binding result is “binds”.
